According to patent publication US20240018513A1, “SYNTHETIC INTRONS FOR TARGETED GENE EXPRESSION” (FRED HUTCHINSON CANCER CENTER, priority 2020, published 2024):

Key:
Type in all cases: cell-based
SF3B1-mutant K562 cells = assay: Mini-screen: pooled synthetic intron mini-library in HSV-TK, GCV treatment, full-length intron sequencing from genomic DNA; details: genotype K700E (SF3B1+/K700E) K562; GCV 100 ug/mL; day 6; vector hPGK-PuroR-P2A-HSV-TK
From the text: (§1) Therefore, a massively parallel splicing assay was developed to map and functionally interrogate key sequence features within the synthetic intron. First, a pilot mini-library of eight synthetic introns was synthesized, seven of which were much shorter (lengths of 100-158 nt) than the parent synthetic intron (synMTERFD3i1-250), and each with one or more perturbations to potentially critical features (FIG. 2E). This mini-library was cloned into HSV-TK, introduced into WT or SF3B1-mutant K562 cells with a lentiviral vector at a low multiplicity of infection, and treated with GCV. Relative depletion of each construct was measured by high-throughput sequencing of the entire introns from genomic DNA after six days of treatment (TABLE 1).
(§2) Each synthetic intron used in the mini-library was ordered individually as a gBlock (Integrated DNA Technologies), consisting of the desired intron flanked by homology arms for cloning (5′ arm: […] (SEQ ID NO:158); 3′ arm: […] (SEQ ID NO:159; TABLE 3). The gBlocks were then mixed in equal proportions before being cloned into hPGK-PuroR-P2A-HSV-TK using a previously published strategy for pooled cloning (Thomas, J. D. et al. RNA isoform screens uncover the essentiality and tumor-suppressor activity of ultraconserved poison exons. Nature genetics 52, 84-94 (2020), incorporated herein by reference in its entirety). This intron mix was then amplified using NEBNext High Fidelity Ready Mix (New England Biolabs) and purified using 1.8×AMPure XP SPRI beads (Beckman Coulter). The backbone for the library was amplified using Q5 polymerase (New England Biolabs). The library was transformed and amplified using Endura ElectroCompetent Cells (Lucigen, 60242-2) and large LB plates. The library was maxiprepped using a Macherey-Nagel MaxiPrep kit (Thermo Fisher Scientific, Cat 740414.10).
(§3) WT or SF3B1-mutant K562 cells were infected with lentivirus encoding the mini-library at an MOI of 0.3 and untreated or treated with GCV (100 ug/mL) for 6 days. Genomic DNA was collected at day 6 and the resulting Illumina libraries were sequenced with 2×150 bp reads (Illumina MiSeq). Depletion/enrichment of each construct was estimated as follows. For each sample, reads were normalized to the total reads mapped. The relative fraction of reads mapping to each intron was then estimated by dividing the numbers of normalized reads mapped to an intron by the total reads mapped in the sample. The standard deviation was calculated using the sample proportion P for each intron (σ=sqrt [P(1−P)/n]). A fold-change was calculated for each intron by dividing the proportion of the intron in the treated GCV samples by the fraction of the intron in the untreated samples. Error propagation was used to estimate the standard deviation. The final relative fold-changes were computed by normalizing fold-changes such that the fold-change of synMTERFD3i1-250 in the pilot screen was identical to the experimentally measured fold-change in a single-construct experiment (FIG. 2C, 100 μg/mL of GCV).

WT K562 cells = assay: as above; details: genotype WT (SF3B1+/+) K562; GCV 100 ug/mL; day 6; vector hPGK-PuroR-P2A-HSV-TK
From the text: as §1, §2, §3

[1] = system: MEL202 cells (SF3B1R625G); assay: RT-PCR of synthetic intron excision in uveal melanoma cells; details: endogenous SF3B1R625G
From the text: FIGS. 9A-9H: Branchpoint manipulation and combinatorial 3′ss mutations enhance SF3B1 mutation-dependent splicing. (9A) Diagrams of modifications in each intron relative to synMTERFD3i1-150. Deletions are specified as open intervals. Branchpoints were inserted in between the indicated positions. (9B) Relative viability of K562 cells expressing the indicated constructs, measured in the full screen. Relative viability estimated as fold-change in representation of each construct, measured by full-length intron sequencing from genomic DNA, at day 8 for GCV-treated relative to untreated samples. GCV concentration, 100 ug/mL. Vector is hPGK-PuroR-P2A-HSV-TK. Data represented as mean±s.d. Standard deviation was estimated as sample proportion standard deviation. (9C) Relative viability of K562 cells expressing the indicated constructs, measured in cells expressing each construct individually. […] Relative viability measured by ATP after 11 days of treatment and normalized to PBS-treated samples. […]
Total RNA was extracted using Direct-zol RNA Miniprep (Zymo Research). cDNA was synthesized using Superscript IV Reverse Transcriptase (Thermo Fisher Scientific) using the manufacturer's protocol. Amplicons were analyzed using agarose gel electrophoresis and quantified using ImageJ (Fiji). […]

B1: intron_26: 150 nt MTERFD3 intron 1-derived synthetic intron, deletion 25to125; SEQ ID NO 58/66 (nucleic acid)
DNA 1: GTGAGTCGCCCCCTTCCTCTGCTCCGAGAGGGAAATGGGAATTAGGGTGGTGGCAGAGCCCAAAGAGGCCTTGTAGGCCATGGTAAGGCATTTCTATGTTTTATTTTACTTTGTCTTTATCCTAAAATGCCATTGGCAAGTTTATTGCAG
DNA 2: B1 DNA 1
- fold-change (estimated fold-change in intron abundance in gDNA) (SF3B1-mutant K562 cells): 0.282
- fold-change (estimated fold-change in intron abundance in gDNA) (WT K562 cells): 1.034
- excision / splicing of the synthetic intron (RT-PCR) [1]: excised in the context of endogenous SF3B1R625G, although less efficiently than for SF3B1K700E
